Test results published in US8377701B2, “Specific ligands to sortilin” (H. Lundbeck A/S, priority 2008, dated 2013).
Residue numbers refer to the chain shown, from its start. Where no end group is shown, it is not given here.

T1: S316E mutant sSortilin (Homo sapiens, UniProt Q99523, S316E)
T1 construct: His6 (C); made in house; host or cells: CHO cells
T1 sequence (Q99523 78-755 S316E): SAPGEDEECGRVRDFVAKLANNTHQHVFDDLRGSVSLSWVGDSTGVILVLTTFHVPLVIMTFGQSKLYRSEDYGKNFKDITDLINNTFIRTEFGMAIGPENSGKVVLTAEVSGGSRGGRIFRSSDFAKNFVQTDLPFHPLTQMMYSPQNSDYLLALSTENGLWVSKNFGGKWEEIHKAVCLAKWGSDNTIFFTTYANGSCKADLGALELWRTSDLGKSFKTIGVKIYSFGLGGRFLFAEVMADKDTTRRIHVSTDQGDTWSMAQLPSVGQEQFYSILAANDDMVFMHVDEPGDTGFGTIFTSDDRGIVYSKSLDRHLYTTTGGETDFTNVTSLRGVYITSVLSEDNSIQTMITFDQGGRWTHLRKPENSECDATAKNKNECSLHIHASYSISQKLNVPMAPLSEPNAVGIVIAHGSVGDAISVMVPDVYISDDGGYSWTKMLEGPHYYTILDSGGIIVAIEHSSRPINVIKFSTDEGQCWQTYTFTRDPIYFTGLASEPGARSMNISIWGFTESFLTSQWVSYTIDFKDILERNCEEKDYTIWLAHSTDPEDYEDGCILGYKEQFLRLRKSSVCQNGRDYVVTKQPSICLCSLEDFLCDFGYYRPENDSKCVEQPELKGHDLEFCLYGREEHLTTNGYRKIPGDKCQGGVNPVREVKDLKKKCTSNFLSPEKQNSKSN

T2: sSortilin (Homo sapiens, UniProt Q99523)
T2 construct: Soluble Sortilin (sSortilin); His6 (C); made in house; host or cells: CHO-K1
T2 sequence (Q99523 78-755 limits assumed): T1 sequence (Q99523 78-755 S316E) with E239S

B1: NGFpro: propeptide of Nerve Growth Factor, residues 19-121 of SEQ ID NO:6 (protein)
chain: EPHSESNVPAGHTIPQVHWTKLQHSLDTALRRARSAPAAAIAARVAGQTRNITVDPRLFKKRRLRSPRVLFSTQPPREAADTQDLDFEVGGAAPFNRTHRSKR
modifications: left off: a dimerising Fc or GST

What was measured:
S316E mutant sSortilin = biological target: T1, S316E mutant sSortilin; test: Surface plasmon resonance: ligand binding to purified sSortilin S316E mutant; settings: compared with wtSortilin
Procedure: (§1) Surface plasmon resonance (SPR) measurements were performed on a BIAcore 2000 instrument (Biacore Sweden) equipped with CM5 sensor chips maintained at 20° C. A continuous flow of HBS buffer (10 mM HEPES pH 7.4, 3.4 mM EDTA, 150 mM NaCl, 0.005% surfactant P20) passing over the sensor surface was maintained at 5 μl/min. […] A sortilin solution (320 μl, 5 μg/ml in 10 mM sodium acetate pH 4.0) was then injected over flow cells 1 and 2 at a flow rate of 15 μl/min. Remaining binding sites in all three flow cells were blocked by injection (5 μl/min) of 70 μl of 1 M ethanolamine pH 8.5. […] Screening of the samples was performed by injecting aliquots of 50 μl, at concentrations of 0.1-8 μM, through all flow cells with a flow rate of 5 μl/min. Unless otherwise stated, the samples were dissolved in 10 mM HEPES pH 7.4, 150 mM NaCl, 1.5 mM CaCl2, 1 mM EGTA, 0.005% surfactant P20. Sample buffer was also used as running buffer. The BIAcore response is expressed in relative response units (RU), i.e. the difference in response between the immobilized protein flow cell and the corresponding control flow cell (activated and blocked but without protein). Regeneration of the sensor chip after each cycle of analysis was performed by injecting 20 μl of 10 mM glycine/HCl pH 4.0, 500 mM NaCl, 20 mM EDTA and 0.005% surfactant P20. For calciumfree conditions, HBS containing 20 mM EDTA was used as sample as well as running buffer.

sSortilin [1] = biological target: T2, sSortilin; test: Surface plasmon resonance: ligand binding to immobilized sSortilin in absence or presence of Neurotensin derived peptides; settings: for inhibition of binding of Sort-pro (GST-Sort-pro) to sSortilin: FIG. 3A+B
Procedure: as §1

sSortilin [2] = biological target: T2, sSortilin; test: Surface plasmon resonance affinity of NGFpro and icosapeptides for immobilized sSortilin; type: binding; settings: BIAcore 3000, 20° C., read-out: dissociation constant (Kd)
Procedure: All measurements were performed on a BIAcore 3000 instrument (Biacore Sweden) maintained at 20° C. A continuous flow of buffer F (10 mM HEPES pH=7.4, 150 mM (NH4)2SO4, 1.5 mM CaCl2, 1.5 mM EGTA and 0.005% Tween-20) was passed over the CM5 chip sensor surface at 5 μl/min. The affinity of NGFpro and the peptides for immobilized sSortilin were determined. The dissociation constant (Kd) for NGFpro was ˜10 nM and for peptide-4 (SEQ ID NO:51) ˜5 μM. The ability of the peptides to compete with NGFpro for binding to sSortilin was tested as well.

Molecule	binding to S316E mutant (S316E mutant sSortilin)	inhibition of binding of Sort-pro (GST-Sort-pro) to sSortilin (sSortilin [1])	also measured
BDNF: Mature BDNF, SEQ ID NO. 7 residues 128 to 246, purchased from R&D Systems	affinities similar to that of wtSortilin	–	–
Arg8-Arg-Pro-Tyr-Ile-Leu13-NH2 [reference compound]	–	fails to inhibit	–
ITVDPRLFKKRRLRSPRVLF-NH2 [peptide-4]	–	–	Kd (sSortilin [2]): ~5 µM
Tyr-Ile-Leu [YIL]	–	full inhibition	inhibition of binding of the prodomain of NGF to sSortilin (sSortilin [1]; FIG. 3C, not as efficiently as full length NT): hampers binding; inhibition of binding of RAP to sSortilin (sSortilin [1]; FIG. 3D, not as efficiently as full length NT): hampers binding; affinity for Sortilin (sSortilin [1]; summary statement): high affinity
Sort-pro: Sortilin's own propeptide, residues 34-77 of SEQ ID NO:1, fused to GST (QDRLDAPPPPAAPLPRWSGPIGVSWGLRAAAAGGAFPRGGRWRR; also: fused to GST)	no binding	–	–
B1	affinities similar to that of wtSortilin	–	–
